According to IntAct's records for PubMed 22949657:

B1: Tumor necrosis factor alpha-induced protein 8-like protein 2 (Homo sapiens), Q6P589 (parent)
chain: MESFSSKSLALQAEKKLLSKMAGRSVAHLFIDETSSEVLDELYRVSKEYTHSRPQAQRVIKDLIKVAIKVAVLHRNGSFGPSELALATRFRQKLRQGAMTALSFGEVDFTFEAAVLAGLLTECRDVLLELVEHHLTPKSHGRIRHVFDHFSDPGLLTALYGPDFTQHLGKICDGLRKLLDEGKL

Variants of: B1
Conditions: with RAC1, P63000-1

Variant | effect of a mutation on the interaction
R24A | disrupting interaction strength
K15Q;K16Q | decreasing interaction strength
